The assay has as its target 50S ribosomal subunit. The assay can be described thus: cryo-EM 2D classification.

The results in this text go back to doi:10.1101/2020.04.20.050518.

50S ribosomal subunit (complex) had a stoichiometry N of 2.
